{"source": "patent US20220331349A1", "about": "“TARGETED NANOPARTICLES AND THEIR USES RELATED TO FUNGAL INFECTIONS” (UNIVERSITY OF GEORGIA RESEARCH FOUNDATION, INC., priority 2019, published 2022)", "molecules": {"B1": {"name": "DEC2-Rhod: Rhodamine labeled sDectin-2 protein (conjugate, UniProt Q6EIG7 42-209, looked up)", "extracellular domain": "TYHFTYGETGKRLSELHSYHSSLTCFSEGTKVPAWGCCPASWKSFGSSCYFISSEEKVWSKSEQNCVEMGAHLVVFNTEAEQNFIVQQLNESFSYFLGLSDPQGNNNWQWIDKTPYEKNVRFWHLGEPNHSAEQCASIVFWKPTGWGWNDVICETRRNSICEMNKIYL", "modifications": "extracellular domain rhodamine label", "notes": "Rhodamine labeled sDectin-2 protein"}, "B2": {"name": "sDectin-2: soluble mannan-recognition domain of Dectin-2 (CLEC6A) (protein, UniProt Q6EIG7 42-209, looked up)", "extracellular domain": "B1 extracellular domain", "modifications": "extracellular domain"}}, "key": {"[1]": {"details": "cited from earlier work"}, "[2]": {"tested_on": "A. fumigatus", "experiment": "sDectin-2 liposome and DEC2-Rhod binding to A. fumigatus", "set-up": "species or system Aspergillus fumigatus", "method": "C. albicans CAI4 expressing GFP under control of the ADH1 promoter, A. fumigatus A1163, and wild type C. neoformans H99-alpha were grown in Vogel's Minimal Media (VMM)+1% glucose (85)+0.5% BSA or RPMI 1640 media with no red indicator dye (ThermoFisher SKU— 11835-030)+0.5% BSA or YPD (1% yeast extract, 2% peptone, 2% dextrose) in liquid with shaking or on 24 or 96 well polystyrene microtiter plates or on glass microscope chamber slides and incubated at 37° C. for 3 to 36 hr. Plates were pre-coated with poly-L-lysine for A. fumigatus and glass microscope slides were pre-coated with […]. All fungal cell growth was carried out in a BSL2 laboratory. […]\nFormalin fixed fungal cells were incubated with liposomes at 23° C. in liposome dilution buffer LDB2 (20 mM HEPES, 10 mM Triethoanolamine, 150 mM NaCl, 10 mM CaCl2, 1 mM beta-mercaptoethanol (BME), 5% BSA pH 8.0), wherein the BME was added fresh. […] The area of liposome binding at 20× magnification was quantified by taking an 8-bit grey-scale copy of the unmodified red fluorescent TIF image into Image J (imagej.nih.gov/ij), using Image>Adjust>Threshold>Apply to capture just the red fluorescent areas illuminated by liposomes, and using Analyze>Measure to place the area data for each image in a file. Six to ten photographic images were generally analyzed and averaged for most area estimates. […]"}, "[3]": {"details": "cited from earlier work", "remark": "listed apart in the source"}}, "note": "Where two headings read alike, the source gives them in different places.", "data": [{"molecule": "sDectin-1: soluble extracellular C-terminal beta glucan binding domain of Dectin-1 (CLEC7A)", "values": [{"measurement": "EC50", "setting": "[1]; read-out: EC50s for binding various beta-glucans, strong end of range", "result": "≥ 2.2e-09", "unit": "mM"}, {"measurement": "EC50", "setting": "[1]; read-out: EC50s for binding various beta-glucans, weak end of range", "result": "≤ 2", "unit": "mM"}, {"measurement": "Kd", "setting": "[1]; read-out: Kd affinity constants for various beta-glucans, strong end of range", "result": "≥ 2.2e-09", "unit": "mM"}, {"measurement": "Kd", "setting": "[1]; read-out: Kd affinity constants for various beta-glucans, weak end of range", "result": "≤ 2.6", "unit": "mM"}]}, {"molecule": "B1", "values": [{"measurement": "binding to A. fumigatus cell wall", "setting": "[2]", "result": "did not stain the cell wall"}, {"measurement": "binding to exopolysaccharide matrix of A. fumigatus", "setting": "[2]; 1 hr, 1:200 dilution", "result": "bound strongly to most of the exopolysaccharide matrix surrounding A. fumigatus hyphal cells"}]}, {"molecule": "B2", "values": [{"measurement": "EC50", "setting": "[3]; read-out: Effective Concentration for 50% of binding (EC50), mannan-a-1-2-mannan", "result": "~2", "unit": "mM"}, {"measurement": "EC50", "setting": "[3]; read-out: Effective Concentration for 50% of binding (EC50), mannoglycan", "result": "~0.15", "unit": "mM"}, {"measurement": "EC50", "setting": "[3]; read-out: Effective Concentration for 50% of binding (EC50), mannose", "result": "~20", "unit": "mM"}]}]}
